Results from patent US5795865A, “Kallikrein-inhibiting "kunitz domain" proteins and analogues thereof” (Dyax Corp., priority 1996, dated 1998).
Read-outs that look alike come from different tables or passages of the source.

Tests used:
[1] = molecular target: plasma kallikrein (pKA) (Homo sapiens, UniProt P03952); test: Inhibition of human plasma kallikrein (measured Ki taken as KD), yeast-expressed purified proteins; type: biochemical; set-up: Hydrolysis of the Arg371 -Ile372 peptide bond yields a two-chain proteinase joined by a disulfide bond; settings: for Ki: preliminary measurements
plasma kallikrein (pKA), sequence (P03952 391-638 limits assumed): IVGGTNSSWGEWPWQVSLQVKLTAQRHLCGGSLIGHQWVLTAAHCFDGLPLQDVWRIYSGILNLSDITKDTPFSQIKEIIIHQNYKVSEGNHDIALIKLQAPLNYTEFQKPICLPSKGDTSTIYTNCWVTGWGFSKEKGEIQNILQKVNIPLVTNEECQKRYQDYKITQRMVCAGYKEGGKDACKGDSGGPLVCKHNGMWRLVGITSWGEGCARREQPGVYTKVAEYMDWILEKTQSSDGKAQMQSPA
plasma kallikrein (pKA), sequence (P03952 20-390 partner limits assumed): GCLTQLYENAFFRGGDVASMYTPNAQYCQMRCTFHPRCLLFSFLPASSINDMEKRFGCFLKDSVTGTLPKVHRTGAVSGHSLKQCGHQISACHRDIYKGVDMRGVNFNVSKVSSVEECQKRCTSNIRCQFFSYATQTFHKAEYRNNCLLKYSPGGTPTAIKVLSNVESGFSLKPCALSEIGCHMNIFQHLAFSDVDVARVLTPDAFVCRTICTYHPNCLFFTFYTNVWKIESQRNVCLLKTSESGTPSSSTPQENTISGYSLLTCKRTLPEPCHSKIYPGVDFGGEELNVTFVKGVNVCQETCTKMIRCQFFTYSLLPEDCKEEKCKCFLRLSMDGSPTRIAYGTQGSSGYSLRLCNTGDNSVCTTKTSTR
Experimental: (§1) A second appropriate method of measuring KD is to measure the inhibitor activity against the enzyme. […] For the proteins of this invention, having KD in the range 5 nM to 50 pM, nanograms to micrograms of inhibitor suffice. When using this method, the competition between the inhibitor and the enzyme substrate can give a measured Ki that is higher than the true Ki. Measurement reported here are not so corrected because the correction would be very small and the any correction would reduce the Ki. Here, we use the measured Ki as a direct measure of KD.
The three isolates KKII/3#6, KK2/#11, and KK2/#13 were recloned into a yeast expression vector. The yeast expression vector is derived from pMFalpha8 (KURJ82 and MIYA85). The LACI variant genes were fused to part of the matα 1 gene, generating a hybrid gene consisting of the matα 1 promoter-signal peptide and leader sequence-fused to the LACI variant. Note that the correctly processed LACI-K1 variant protein should be as detailed in Table 2 with the addition of residues glu-ala-ala-glu (SEQ ID NO: 70) to the N-terminal met (residue 1 in Table 2). Expression in S. cerevisiae gave acceptable yield typical of this system.

[2] = molecular target: T1, human plasma Kallikrein (Homo sapiens, UniProt P03952); test: Binding of display-phage to kallikrein-agarose beads (Table 8); settings: for Relative Binding: fraction bound relative to the parental display-phage, LACI-K1; for Fraction Bound: pfu's eluted as a fraction of the input number (10^10 pfu's)
T1 construct: Hydrolysis of the Arg371 -Ile372 peptide bond yields a two-chain proteinase joined by a disulfide bond; purchased Calbiochem 420302
T1 sequence (P03952 391-638 limits assumed): as the sequence (P03952 391-638 limits assumed) above
T1 sequence (P03952 20-390 partner limits assumed): as the sequence (P03952 20-390 partner limits assumed) above
Experimental: This method is highly sensitive because the genetic packages can be amplified. We obtain at least semiquantitative values for the binding constants by use of a pH step gradient. […] Any other suitable method of measuring protein binding may be used.
The overall scheme for selecting a LACI-K1 variant to bind to a given protease involves incubation of the phage-display library with the kallikrein-beads of interest in a buffered solution (PBS containing 1 mg/ml BSA) followed by washing away the unbound and poorly retained display-phage variant with PBS containing 0.1% Tween 20. Kallikrein beads were made by coupling human plasma Kallikrein (Calbiochem, San Diego, Calif., # 420302) to agarose beads using Reactigel (6x) (Pierce, Rockford, II, #202606). The more strongly bound display-phage are eluted with a low pH elution buffer, typically citrate buffer (pH 2.0) containing 1 mg/ml BSA, which is immediately neutralized with Tris buffer to pH 7.5. This process constitutes a single round of selection.

[3] = molecular target: plasmin (Homo sapiens, UniProt P00747); test: Inhibition of plasmin (Ki); type: biochemical
plasmin, sequence (P00747 581-810 limits assumed): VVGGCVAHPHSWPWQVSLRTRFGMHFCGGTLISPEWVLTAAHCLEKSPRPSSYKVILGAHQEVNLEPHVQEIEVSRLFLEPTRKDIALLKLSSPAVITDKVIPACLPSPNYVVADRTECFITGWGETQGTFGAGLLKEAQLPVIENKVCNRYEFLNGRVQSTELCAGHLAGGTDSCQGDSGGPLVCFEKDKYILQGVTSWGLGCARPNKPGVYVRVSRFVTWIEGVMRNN
plasmin, sequence (P00747 97-580 partner limits assumed): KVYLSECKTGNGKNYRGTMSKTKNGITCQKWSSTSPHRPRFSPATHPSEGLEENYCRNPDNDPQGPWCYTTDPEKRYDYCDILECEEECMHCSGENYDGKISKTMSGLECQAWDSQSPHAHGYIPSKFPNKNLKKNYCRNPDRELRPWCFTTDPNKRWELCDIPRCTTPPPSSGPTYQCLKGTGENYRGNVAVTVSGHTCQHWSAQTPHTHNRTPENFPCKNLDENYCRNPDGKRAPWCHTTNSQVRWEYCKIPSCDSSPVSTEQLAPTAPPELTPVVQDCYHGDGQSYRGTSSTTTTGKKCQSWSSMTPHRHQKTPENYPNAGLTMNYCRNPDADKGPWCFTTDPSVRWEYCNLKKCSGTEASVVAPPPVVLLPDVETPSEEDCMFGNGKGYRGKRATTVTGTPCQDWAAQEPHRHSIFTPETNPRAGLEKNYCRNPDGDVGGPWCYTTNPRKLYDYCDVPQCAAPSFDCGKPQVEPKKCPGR
Experimental: as §1

[4] = about 840 mg, 80 open-heart surgery patients, FRAE89; cited from earlier work
[5] = not corrected for substrate competition, read-out: Ki for plasma kallikrein (pKA)
[6] = stated as 'probably less than', read-out: Ki for plasma kallikrein (pKA), probable bound

Substance | Ki [1, 5] [nM] | Ki [1, 6] [nM] | Relative Binding [2] | Fraction Bound [2] | other results
KK2/#11: second-library LACI-K1 variant Kunitz domain, SEQ ID NO. 22 (MHSFCAFKADDGPCRAAHPRWFFNIFTRQCEEFSYGGCGGNQNRFESLEECKKMCTRD) | < 0.3 | < 0.1 |  |  | 
KK2/#13: second-library LACI-K1 variant Kunitz domain, SEQ ID NO. 19 (MHSFCAFKADGGRCRGAHPRWFFNIFTRQCEEFSYGGCGGNQNRFESLEECKKMCTRD) | < 0.3 | < 0.1 |  |  | 
KKI/3(a): LACI-K1 variant Kunitz domain, phase I selectant, SEQ ID NO. 15 (MHSFCAFKADDGRCKGAHLRFFFNIFTRQCEEFIYGGCEGNQNRFESLEECKKMCTRD) |  |  | 761 | 3.2 × 10^-3 | 
KKI/3(b): LACI-K1 variant Kunitz domain, phase I selectant, SEQ ID NO. 16 (MHSFCAFKADDGPCKAIHLRFFFNIFTRQCEEFIYGGCEGNQNRFESLEECKKMCTRD) |  |  | 524 | 2.2 × 10^-3 | 
KKII/3#5: LACI-K1 variant Kunitz domain, SEQ ID NO. 9 (MHSFCAFKADDGHCKASLPRFFFNIFTRQCEEFIYGGCGGNQNRFESLEECKKMCTRD) |  |  | 928 | 3.9 × 10^-3 | 
KKII/3#6: lead pKA inhibitor, LACI-K1 variant Kunitz domain, SEQ ID NO. 10 (MHSFCAFKADDGHCKANHQRFFFNIFTRQCEEFSYGGCGGNQNRFESLEECKKMCTRD) | ~0.3 | < 0.5 | 2071 | 8.7 × 10^-3 | Ki for kallikrein relative to wild-type LACI and BPTI (times) ([1]; versus both wild-type LACI and BPTI): over 100 times; Ki [3]: 10 µM
LACI-K1: first Kunitz domain of human LACI (residues 50 to 107), parental molecule, SEQ ID NO. 3 (MHSFCAFKADDGPCKAIMKRFFFNIFTRQCEEFIYGGCEGNQNRFESLEECKKMCTRD) [reference compound] |  |  |  | 4.2 × 10^-6 | 
bovine pancreatic trypsin inhibitor [BPTI] |  |  |  | 2.5 × 10^-5 | decrease of mean amount transfused [4]: 74%
